Laboratory results as given in the supplement of paper PMC12042874.
± gives the uncertainty stated by the source.

Experiment: amyloid nucleation score (Sup35N fusion, yeast selection) (log enrichment); library NNK2; higher = more nucleation; inactive = no reads after selection
Procedure, shortened: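 Sup35N fusions to peptides of 20 random codons were expressed in psi-negative yeast, induced 24 hours with 100 μM copper sulfate, and grown 7 days at 30°C on medium lacking adenine and uracil. Input and output plasmid inserts were sequenced by Illumina. The nucleation score is the DiMSum log enrichment of output over input reads, centred on the mode score of non-aggregating sequences. Sequences with under 100 input reads were excluded.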

Substance	amyloid nucleation score
YFRLLISCQNRLLVRKLRAA	-0.021 ± 0.79
LISKSGSFMNMLGTGDRAR	0.005 ± 1
ELWRYDINIERYKSTRSVYH	3.08 ± 0.055
LWRILVALFAISILRTLVMQ	1.63 ± 0.2
IGKGRFNVYCMN	-0.64 ± 0.79
RKLTIA	-0.887 ± 0.42
IHNPLVRY	-0.366 ± 0.41
YFPVIRRDAAFYPFSAPYFN	-2.05 ± 0.77
IRSNLTKKHLKIL	-0.994 ± 0.63
FVVGAES	-0.821 ± 0.48
SHEMGGFHNSNL	-1.56 ± 1
GYYRFLSSLLELTV	-0.628 ± 0.76
RTIYFFLSWHFGSFIKFLKL	inactive
SSVAKVRGSVLYMGRSGWVG	0.138 ± 0.8
SIRSS	inactive
YPYDWSLLVLELVRQILSMG	0.704 ± 0.47
GRSEVRFMTMLMLCKKCACL	5.547 ± 0.034
PRCNGHY	inactive
FPLIDTYLEFMEPNGYWNSS	0.516 ± 0.81
SFGKVYFN	0.617 ± 0.53
RSFSSPRIILYVKLLVSLYG	-0.783 ± 0.25
HFSYKPVEYPLFSRFKPVFN	-0.025 ± 0.79
NTHGR	4.61 ± 0.073
VIWYLRMVSTCNERGVKGIE	inactive
MTYYRAYFAYLWVVRLWL	0.029 ± 0.32

Substance	amyloid nucleation score
CCSVCFRRLLYLLSRR	6.9 ± 0.068
LIAFMRF	5.688 ± 0.042
WDVIELF	-1.4 ± 1.1
MDGIGTFNLSENR	inactive
NCYMSVLILVRLLGSHLKQS	-0.249 ± 1.1
SDCGHAEVVCAGNHGGTSYP	0.326 ± 0.27
MYCETLRRSILMVNMNPRNP	-0.114 ± 0.31
LVYLIGSGNLQRISFPQRRV	5.51 ± 0.067
SRFYILRL	2.25 ± 0.098
MVLVMCPLS	0.015 ± 0.25
AYVRNAIGTMFLLALSHRGD	-0.345 ± 0.48
KILRVKRQGRGSRNR	-0.055 ± 0.55
AYSKTNVFNSWWLVKCLFLF	inactive
STVFRQSLE	0.269 ± 0.22
YYEVCPI	-0.076 ± 0.44
RKCSLVAEWTGLLLNSFVHN	1.19 ± 0.45
HWSLGSYFGYNFGR	5.67 ± 0.062
WNIWFTVCYCKHLSKSKGSD	8.667 ± 0.033
MFAFMNFRRTIVVYEVWGSY	inactive
SAVNHTYVGD	0.122 ± 1.1
NRYVFLGHCVPVRGATHFLV	0.173 ± 1.1
NWGWSAILKPLRFAVFRPWN	0.336 ± 0.6
HTQSLVRVCWIYIRLPRSTP	0.393 ± 0.2
EMSVRPGVSRKIWS	0.43 ± 0.49
VAFNCNIEIISPAGDGETFV	-0.489 ± 0.27

Substance	amyloid nucleation score
DRPALCSLCSETSVVNTLHL	5.74 ± 0.064
GFSTRYVFTSLYLKYFNRVY	-0.476 ± 0.64
WAPFMGVSKSTQTARTGMVM	-0.146 ± 0.61
DFSIQWCTSSINYVLYFAI	-1.89 ± 0.44
SYECCNKMQDINSMCGKLYW	0.274 ± 1.1
MMSEVLKDVSCHFIPLGGQV	-0.694 ± 0.48
NEVRYLGTVLACQQRLHTWM	1.06 ± 0.29
YLCLTFCNIDNLQVMFKSAY	8.209 ± 0.034
GPTRSYRLAASGAGEGCKTW	2.09 ± 0.1
DYFSNLIVDLTFLSGSFVFV	-0.578 ± 1.1
WDNHYRIKYCG	inactive
LKWVTFEST	-0.418 ± 1.1
PAIISFQYLFGRRSELEKM	5.572 ± 0.047
DLGAFRLRR	-2.19 ± 0.54
IPRGLFCLLYNVVKEYFVLR	0.198 ± 0.4
HAGMIYILYVNLRRTSKRMG	3.86 ± 0.072
SFFVRKLIGNSYHN	1.89 ± 0.17
YCLVSIKMCYGYVVGSLVGW	2.63 ± 0.068
WLLFMS	-0.353 ± 0.54
NCGRTNGLCPGYVCVSRLAW	1.09 ± 0.21
FYHISEVLVVPLRLELSVQL	5.68 ± 0.07
CFFPDSVTTELKKIKTL	-0.692 ± 0.41
ICRNGLSL	0.098 ± 0.26
KDGLTISRIQITLIKRTLVV	0.035 ± 0.74
SVIRMLYD	-0.113 ± 0.45

Substance	amyloid nucleation score
HRFSGVVIYNINRSSTIGN	7.328 ± 0.04
LLNSCSTVESWCNLGEMDKY	0.122 ± 1.1
VYSLYNDRYYC	-0.406 ± 0.31
WCTIHYDLMLVVRTNSSRSI	1.08 ± 0.18
LAHHMF	0.429 ± 0.8
GEHSGTHNFKCFVSIIRLSR	0.305 ± 1
SYVSIWLACWLISFNWSGNG	0.713 ± 0.58
HARVKLVIILLTLREGGMFW	-0.108 ± 0.62
TVSRIMLGNGKYFKHVL	2.3 ± 0.064
DSDHFA	-1.58 ± 0.78
KVSWEDSFLFLCQCRRDCTL	8.707 ± 0.039
GLSAMDDRMVPRIIYWIRLW	-0.217 ± 0.36
FRVKLTLRFLNITECCLDYL	3.29 ± 0.095
RISIPS	inactive
MRLLILDPYAREQ	inactive
RMCWELFT	0.022 ± 0.34
SYMFDSEVQVRTDFLLFCYI	0.346 ± 0.17
FGYLVIKFVTYVRRRTNTYN	-0.113 ± 0.56
WHSTVSLWSHPFPHKATKEP	0.256 ± 0.42
MFWKTWGVNCQATNRMEIRL	2.99 ± 0.055
KVVGGLVLHGSL	inactive
GSYYCIDVGASRRPVWILSA	0.855 ± 0.48
LKEDF	inactive
CGLVLVIRVYITSLYNSRFM	1.49 ± 0.14
CQSCYYHNR	-0.77 ± 0.21

Substance	amyloid nucleation score
SIIIVKFLIGWRILWRSLTY	inactive
FLYPRYLVVMKHVLAGRCVA	inactive
NTGGS	-0.51 ± 0.61
YYFIG	0.673 ± 0.24
YEMFHAILCY	-0.101 ± 0.8
YSLMCQFHSSPISFFLCWLP	8.157 ± 0.071
ATQRHVSTGKSGSN	0.606 ± 0.8
HYQWQYACLWRCVTVRGSDQ	0.949 ± 0.17
TVGEPIIRLYRFVRFFCLAN	-1.79 ± 0.78
VFTGNLICYMDGGTGFSCFQ	9.018 ± 0.029
YCDCPVNICRRFPGHEHRGV	inactive
RWSGPGCTLSTGMWTFIPQV	-0.145 ± 0.76
SVDIHGTFWHILYSIAPDQV	1.75 ± 0.23
AVMMCIASIDFRVWYLG	1.53 ± 0.15
FLMEVSLTLSFLERSNVLKG	3.8 ± 0.067
ICRPGYGY	inactive
DMNLRLSEWVDFCSIGLFVK	-0.272 ± 0.35
FISTGRRQTFQTRTRSNLWV	0.195 ± 0.37
IFKINVVVSSNTAQ	2.4 ± 0.21
LLIFNGLYGWAIGDGLPSSW	5.09 ± 0.051
VIKMSVNNVELVGMDHYSCV	0.606 ± 0.23
YQDWGSSTLLIVIKSWAGET	-1.02 ± 0.33
WVGSCKNVSFMQVIVWIVRL	-0.121 ± 1.1
MYLAGHLDCGGY	3.27 ± 0.055
VRVGVWSMTFG	-0.52 ± 0.78

Substance	amyloid nucleation score
NVTGYFSSYKVVGRMESSYV	1.73 ± 0.19
SVTCSSRCVSQRRFLVGPWN	-1.35 ± 0.41
SFITDRADCRQWLLRNNIFA	-0.771 ± 0.64
PGVMHICLCRTHTSRCKCTL	0.402 ± 0.57
ELTSLQVMLSNDEMMGGRVN	0.064 ± 0.3
EIVQFLLHMYGSVREAMVAL	-1.05 ± 0.56
TIENLNLFWF	5.73 ± 0.06
RILFNRS	0.107 ± 0.4
FEWSTGCG	inactive
NITSSNRGVSFEETGVNAGI	inactive
CDHVVVIIIVGWGAEGE	0.512 ± 0.25
SGCWIGRFLSSGVSMKVHVS	1.23 ± 0.4
SCHWNVTRGRWNTKHNLRPK	1.06 ± 0.4
RRIGFDAPDVSRYVALLYWD	-0.106 ± 0.32
LDIITGLSSISGTHIFGSSP	-0.627 ± 0.78
RLGWNGE	-0.709 ± 0.49
ICKFFSIGVH	1.14 ± 0.68
CPGRRTISFYSFSFVFRSMN	inactive
LNYNYTQDR	-0.751 ± 1.1
GLKNRVWL	1.05 ± 0.26
LHSNCRV	0.343 ± 0.8
CHPLEMWFFFSLGGFGVSMT	-1.54 ± 1.1
DSHADAISVAVKVGRWRYND	1.53 ± 0.23
YVCLRRWNWRMKLTCVSKLG	0.734 ± 0.35
LYFWPLTFRSGHCCGLSQVK	1.16 ± 0.61

Substance	amyloid nucleation score
YVFLGD	2.35 ± 0.11
EHHYI	-0.202 ± 1
LIQVAFQLYATVQVTVKTDV	2.09 ± 0.26
LGTSRGNDVENRAYSRWVKV	0.524 ± 0.81
YRATYVLRVAFSWVVSCPGD	-0.377 ± 0.41
MDLYCD	inactive
TSERRLNYTCCNYWYMG	9.053 ± 0.04
GINVCFKHTMV	3.28 ± 0.062
AWSYVQFRTFYALTVPTSAL	-0.125 ± 0.38
INGSYSGYLERFGGMLRWMV	0.753 ± 0.52
LHIESRLRRSSQEKSN	0.012 ± 0.45
YYSYYWQTNHID	-1.68 ± 0.62
PSVSRLIESNFCSSIRFFTH	-1.04 ± 0.64
VWTLYYHHIGSAFSTCNRLF	4.5 ± 0.062
CTEGQLN	0.002 ± 0.55
DNCLASVFINVKEFSHLCLW	-0.451 ± 0.79
FDLNAREHYRASRGDTGTGH	1.16 ± 0.68
IMPNLAPGCRIRAIVND	-0.006 ± 0.29
ICPPAWFKRVNDGGVYALNE	0.904 ± 0.48
AVFVPNSNALVLTVLT	0.603 ± 0.51
SVLLWWTHMYGLRMMKGVWG	0.433 ± 0.15
IWSRLVVLRGRAGSDSSKNS	-0.044 ± 0.5
MGSAS	0.682 ± 0.34
ISDAKRNCRCRSLPILIMVW	0.448 ± 0.24
